Test results published in US20240218057A1.

Assays:
Test in all cases: cell-based or functional assay
[1] = molecular target: SARS-COV-2 spike protein K417N on pseudotyped virus (SARS-CoV-2) (UniProt P0DTC2)
[2] = molecular target: SARS-COV-2 spike protein E484K (R683G) on pseudotyped virus (SARS-CoV-2) (UniProt P0DTC2)
[3] = molecular target: SARS-COV-2 spike protein N501Y on pseudotyped virus (SARS-CoV-2) (UniProt P0DTC2)
[4] = molecular target: SARS-COV-2 spike protein A475V on pseudotyped virus (SARS-CoV-2) (UniProt P0DTC2)
[5] = molecular target: SARS-COV-2 spike protein R683G on pseudotyped virus (SARS-CoV-2) (UniProt P0DTC2)
[6] = molecular target: SARS-COV-2 spike protein N440K on pseudotyped virus (SARS-CoV-2) (UniProt P0DTC2)
[7] = molecular target: SARS-COV-2 spike protein R346S on pseudotyped virus (SARS-CoV-2) (UniProt P0DTC2)
[8] = molecular target: SARS-CoV-2 spike protein R346S (pseudovirus) (SARS-CoV-2) (UniProt P0DTC2)
[9] = molecular target: SARS-CoV-2 spike protein E484K (R683G) (pseudovirus) (SARS-CoV-2) (UniProt P0DTC2)
[10] = molecular target: SARS-CoV-2 spike protein A475V (pseudovirus) (SARS-CoV-2) (UniProt P0DTC2)
[11] = molecular target: SARS-CoV-2 spike protein R683G (pseudovirus) (SARS-CoV-2) (UniProt P0DTC2)
[12] = molecular target: SARS-CoV-2 spike protein N501Y (pseudovirus) (SARS-CoV-2) (UniProt P0DTC2)
[13] = molecular target: SARS-CoV-2 spike protein K417N/E484K/N501Y (R683G) (pseudovirus) (SARS-CoV-2) (UniProt P0DTC2)
[14] = molecular target: SARS-CoV-2 spike protein Q493R (pseudovirus) (SARS-CoV-2) (UniProt P0DTC2)
[15] = molecular target: SARS-CoV-2 spike protein N440K (pseudovirus) (SARS-CoV-2) (UniProt P0DTC2)
[16] = molecular target: SARS-CoV-2 spike protein K417N (pseudovirus) (SARS-CoV-2) (UniProt P0DTC2)

Substance | neutralization IC50 [1] | neutralization IC90 [1] | neutralization IC50 [2] | neutralization IC90 [2] | neutralization IC50 [3] | neutralization IC90 [3] | neutralization IC50 [4] | neutralization IC90 [4] | neutralization IC50 [5] | neutralization IC90 [5] | neutralization IC50 [6] | neutralization IC90 [6] | neutralization IC50 [7] | neutralization IC90 [7] | further results
C135 (antibody) | 0.00348 µg/mL | 0.0147 µg/mL | 0.00199 µg/mL | 0.02 µg/mL | 0.0129 µg/mL | 0.141 µg/mL | 0.00461 µg/mL | 0.0272 µg/mL | 0.00271 µg/mL | 0.0228 µg/mL | > 1 µg/mL | > 1 µg/mL | > 1 µg/mL | > 1 µg/mL | –
C121 (antibody) | 0.0031 µg/mL | 0.0163 µg/mL | > 1 µg/mL | > 1 µg/mL | 0.00375 µg/mL | 0.0189 µg/mL | 0.00253 µg/mL | 0.0183 µg/mL | 0.00167 µg/mL | 0.0108 µg/mL | 0.0035 µg/mL | 0.0182 µg/mL | 0.00363 µg/mL | 0.0156 µg/mL | –
C144 (antibody) | 0.00184 µg/mL | 0.0115 µg/mL | > 1 µg/mL | > 1 µg/mL | 0.00305 µg/mL | 0.0189 µg/mL | 0.00319 µg/mL | 0.0162 µg/mL | 0.00123 µg/mL | 0.00666 µg/mL | 0.0024 µg/mL | 0.0135 µg/mL | 0.00341 µg/mL | 0.0167 µg/mL | IC50 neutralization [8]: 0.0034 µg/mL; IC90 neutralization [8]: 0.0167 µg/mL; IC50 neutralization [9]: > 1 µg/mL; IC90 neutralization [9]: > 1 µg/mL; IC50 neutralization [10]: 0.0032 µg/mL; IC90 neutralization [10]: 0.0162 µg/mL; IC50 neutralization [11]: 0.0012 µg/mL; IC90 neutralization [11]: 0.0067 µg/mL; IC50 neutralization [12]: 0.003 µg/mL; IC90 neutralization [12]: 0.0189 µg/mL; IC50 neutralization [13]: > 1 µg/mL; IC90 neutralization [13]: > 1 µg/mL; IC50 neutralization [14]: > 1 µg/mL; IC90 neutralization [14]: > 1 µg/mL; IC50 neutralization [15]: 0.0024 µg/mL; IC90 neutralization [15]: 0.0135 µg/mL; IC50 neutralization [16]: 0.0018 µg/mL; IC90 neutralization [16]: 0.0115 µg/mL
